Assays:
S. epidermidis biofilm = experiment: Dispersal of S. epidermidis biofilm aggregates in a tube; assay type: cell-based; settings: scraped biofilm cell aggregates in tube treated with DispersinB
Excerpt: The biofilm growth from the surface was scraped from the bottom of the tube and transferred to another tube (FIG. 2). Under these condition cells formed a sticky aggregate that rapidly settle to the bottom of the tube.

[1] = tested on: A. actinomycetemcomitans strain HW1018 (PGA mutant) biofilms; experiment: Biofilm detachment assay (crystal violet); assay type: cell-based; settings: DispersinB 20 μg/mL; either culture vessel
Excerpt: (§1) Bacterial strains, media, and growth conditions. A. actinomycetemcomitans strain CU1000 (serotype f) was isolated from a person with localized aggressive periodontitis (Fine et al., Microbiol. 1999, 145: 1335-1347). […] An isogenic PGA mutant strain HW1018 (CU1000 pgaC::IS903φKan) was isolated by randomly mutagenizing CU1000 with transposon IS903φKan and selecting mutants that produced white colonies on Congo red agar, as previously described (Kaplan et al., 2003; Kaplan et al., J. Bacteriol. 2004, 186: 8213-8220). Like other pgaC mutant strains, HW1018 was completely deficient in PGA production, but still formed tenacious biofilms on plastic surfaces (Kaplan et al., 2004). Bacteria were grown in trypticase soy broth supplemented with […] and 8 g/L glucose. Solid medium was supplemented with 15 g/L agar. All cultures were incubated statically at 37° C. in 10% CO2.
(§2) Biofilm Cultures. Biofilms were grown in 17 mm×100 mm culture tubes (untreated polystyrene; Falcon #352051) or 96-well microtiter plates (tissueculture-treated polystyrene, flat bottoms; Falcon #353072). Culture vessels were inoculated with a 1:10 dilution of inoculum in fresh broth (1 mL for tubes or 200 μL for microplates) and incubated for 24 h.
(§3) Crystal Violet Assay. Biofilm biomass was visualized and quantitated by means of a crystal violet binding assay as previously described (Kaplan et al., Antimicrob. Agents Chemother. 2004, 48: 2633-2636). Briefly, biofilms were rinsed with water to remove loosely attached cells, stained for 1 min with Gram's crystal violet (200 μL for microplates and 1 mL for tubes), rinsed, dried, and photographed. For quantitation of biofilms grown in microplates, biofilms were de-stained with 200 μL of 33% acetic acid for 5 min, and the absorbance of the crystal violet solution was measured directly in the plate by means of a BioRad Benchmark microtiter plate-reader set at 590 nm. Crystal violet binds to bacterial biofilms, but not to polystyrene (O'Toole & Kolter, Mol. Microbiol. 1998, 28: 449-461).
(§4) Biofilm Detachment Assay. Biofilms were rinsed with water and treated with 200 μL (for microplates) or 1 mL (for tubes) of DispersinB™ (20 μg/mL in PBS) or SDS (0.001-1% in PBS). After a five- or 30-minute incubation at 37° C., biofilms were rinsed with water and stained with crystal violet as described above. In some assays, biofilms were first treated with DispersinB™ for 5 or 30 min, rinsed, and then treated with SDS. All detachment assays were performed in duplicate wells or tubes. All assays were performed on at least 3 separate occasions, with similar results.

[2] = tested on: A. actinomycetemcomitans strain CU1000 (wild-type) biofilms; experiment: Biofilm detachment assay (crystal violet); assay type: cell-based
Excerpt: as §1, §2, §3, §4

[3] = Shelf life of purified DispersinB; assay type: physicochemical
[4] = DispersinB enzyme activity; assay type: biochemical; settings: recombinant protein purified from an overexpressing strain of E. coli
Description: Reagents. Recombinant dispersinB protein was purified from an overexpressing strain of E. coli as previously described (Kaplan et al., J. Bacteriol. 2003, 185: 4693-4698). […] Sodium dodecyl sulfate (SDS) was purchased from Fluka (St. Gallen, Switzerland). Phosphate-buffered saline (PBS; 138 mM NaCl, 10 mM phosphate, 2.7 mM KCl, pH 7.4) was purchased from Sigma Chemical Company (St. Louis, Mo., USA).

[5] = tested on: biofilm-embedded S. epidermidis; experiment: In vitro biofilm killing assay after DispersinB pre-treatment; assay type: cell-based, Staphylococcus epidermidis; settings: DispersinB alone, 20 μg/ml, 30 min
Description: An in vitro biofilm assay was performed to determine the effect of DispersinB™ pre-treatment on the susceptibility of S. epidermidis to SDS. S. epidermidis biofilm grown in tubes were pretreated with PBS or DispersinB™ (20 μg/ml) for 30 min, and then treated with SDS (0.2 mg/ml) for 5 min at 37° C. […] However, SDS caused a 1.5 log unit decrease in the number of CFUs in tubes pretreated with […] biofilm embedded cells more susceptible to SDS.
An in vitro biofilm assay was performed to determine the effect of DispersinB™ pre-treatment on the susceptibility of biofilm-embedded S. epidermidis to CHX. S. epidermidis biofilm grown in tubes were pretreated with PBS or DispersinB™ (20 μg/ml) for 30 min, and then treated with CHX (0.2 μg/ml) for 5 min at 37° C. […] However, CHX caused a 1.6 log decrease of CFU in tubes pretreated with DispersinB™. DispersinB™ pretreatment made biofilm-embedded cells more susceptible to CHX.
An in vitro biofilm assay was performed to determine the effect of DispersinB™ pre-treatment on the susceptibility of S. epidermidis to BKC. S. epidermidis biofilm grown in tubes were pretreated with PBS or DispersinB™ (20 μg/ml) for 30 min, and then treated with BKC (0.4 μg/ml) for 60 min at 37° C. […] However, BKC caused a 2.2 log decrease in CFU in tubes pretreated with DispersinB™. DispersinB™ pre-treatment made biofilm-embedded cells more susceptible to BKC.
An in vitro biofilm assay was performed to determine the effect of DispersinB™ pre-treatment on susceptibility of S. epidermidis to silver nanopowder (SNP). S. epidermidis biofilm grown in tubes were pretreated with PBS or DispersinB™ (20 μg/ml) for 30 min, and then treated with SNP (0.03125 μg/ml) for 60 min at 37° C. […] However, SNP caused a 1.5 log decrease in CFU in tubes pretreated with DispersinB™. DispersinB™ pre-treatment made biofilm embedded cells more susceptible to SNP treatment.

B1: DispersinB™: 381 amino acid soluble β-N-acetylglucosaminidase encoded by dspB of A. actinomycetemcomitans; mature polypeptide SEQ ID NO:11 (protein)
chain: NCCVKGNSIYPQKTSTKQTGLMLDIARHFYSPEVIKSFIDTISLSGGNFLHLHFSDHENYAIESHLLNQRAENAVQGKDGIYINPYTGKPFLSYRQLDDIKAYAKAKGIELIPELDSPNHMTAIFKLVQKDRGVKYLQGLKSRQVDDEIDITNADSITFMQSLMSEVIDIFGDTSQHFHIGGDEFGYSVESNHEFITYANKLSYFLEKKGLKTRMWNDGLIKNTFEQINPNIEITYWSYDGDTQDKNEAAERRDMRVSLPELLAKGFTVLNYNSYYLYIVPKASPTFSQDAAFAAKDVIKNWDLGVWDGRNTKNRVQNTHEIAGAALSIWGEDAKALKDETIQKNTKSLLEAVIHKTNGDE
modifications: Actinobacillus actinomycetemcomitans
With B1 the “dispersal of S. epidermidis biofilm” value (S. epidermidis biofilm) was “detaches the biofilm”, the “attachment of PGA mutant biofilms” value [1] was “no effect” and the “detachment of wild-type biofilms from microplate wells” value ([2]; DispersinB 20 μg/mL in PBS, 5 min, 96-well microplate wells) was “not from microplate wells”. For the same molecule, the “detachment of wild-type biofilms from tubes” value ([2]; DispersinB 20 μg/mL in PBS, 5 min, polystyrene tubes) was “rapid detachment”, the “single cells in suspension after disaggregation of biofilms” value ([2]; biofilms grown in tubes, DispersinB, microscopic analyses (data not shown)) was > 99% and the shelf life [3] was “approximately 12 months”. For the same molecule, the specific activity [4] was ~10^3 units per mg of protein and the “killing of biofilm-embedded S. epidermidis” value [5] was “did not significantly kill”.

— patent US8821862B2, “Soluble β-N-acetylglucosaminidase based antibiofilm compositions and uses thereof” (Kane Biotech Inc., priority 2002, dated 2014)
